Measurements from patent US20230212319A1, “NOVEL ANTIGEN BINDING DOMAINS AND SYNTHETIC ANTIGEN RECEPTORS INCORPORATING THE SAME” (University of Southern California, priority 2020, published 2023).

B1: 22215 (protein)
chain: MALPVTALLLPLALLLHAARPACPYINIYNAEPANPSEKNSPTQYAYGTGAVVRGAEFDIQMTQSPSSLSASVGDRVTITCKASDHINNWLAWYQQKPGQAPKLLIYGATTLETGVPSRFSGSGSGTDYTLTISSLQPEDFATYYCQQSWNTPWTFGQGTKLEIKRLEDLKNVFPPEVAVFEPSKAEIAHTQKATLVCLATGFYPDHVELSWWVNGKEVHSGVCTDPQPLKEQPALNDSRYCLSSRLRVSATFWQNPRNHFRCQVQFYGLSENDEWTQDRAKPVTQIVSAEAWGRADCGITSASYHQGVLSATILYEILLGKATLYAVLVSALVLMAMVKRKDSRGRAKRSGSGATNFSLLKQAGDVEENPGPTSATMDWIWRILFLVGAATGAHSGPQVQLQESGGGLAQAGGSLRLSCAASGRTFSMGWFRQAPGKEREFVAAITYSGGSPYYASSVRGRFTISRDNAKNTVYLQMNSLKPEDTAVYYCAANPTYGSDWNAENWGQGTQVTVSSGSGGGGSGGGGSGGGGSFEQVQLQQPGAELVKPGASVKMSCKASGYAFSSYWINWMKQKPGQGLEWIGQIYPGDGDTNYNGKFKGRATLTADTSSSTAYMQLSSLTSEDSAVYFCARSITTVVGCAMDYWGQGTSVTVSSTRIQNPDPAVYQLRDSKSSDKSVCLFTDFDSQTNVSQSKDSDVYITDKCVLDMRSMDFKSNSAVAWSNKSDFACANAFNNSIIPEDTFFPSSDVPCDVKLVEKSFETDTNLNFQNLSVIGFRILLLKVAGFNLLMTLRLWSSRAKRSGSGVKQTLNFDLLKLAGDVESNPGPSRGHMTEYKPTVRLATRDDVPRAVRTLAAAFADYPATRHTVDPDRHIERVTELQELFLTRVGLDIGKVWVADDGAAVAVWTTPESVEAGAVFAEIGPRMAELSGSRLAAQQQMEGLLAPHRPKEPAWFLATVGVSPDHQGKGLGSAVVLPGVEAAERAGVPAFLETSAPRNLPFYERLGFTVTADVEVPEGPRTWCMTRKPGA
B2: CD8SP-BCMA-FHVH-93-G4S-TCR-Vg9-F-P2A-IgHSP-CD20-vHH2-HCD25-G4S-TCR-Vd2-F-F2A-PAC (protein)
chain: MALPVTALLLPLALLLHAARPACEVQLLESGGGLIQPGGSLRLSCAASGFTFSSHAMTWVRQAPGKGLEWVSAISGSGDYTHYADSVKGRFTISRDNSKNTVYLQMNSLRAEDSAVYYCAKDEDGGSLLGHRGQGTLVTVSSGTGGGGSGGGGSGGGGSEFAGHLEQPQISSTKTLSKTARLECVVSGITISATSVYWYRERPGEVIQFLVSISYDGTVRKESGIPSGKFEVDRIPETSTSTLTIHNVEKQDIATYYCALWEAQQELGKKIKVFGPGTKLIITDKQLDKQLDADVSPKPTIFLPSIAETKLQKAGTYLCLLEKFFPDVIKIHWQEKKSNTILGSQEGNTMKTNDTYMKFSWLTVPEKSLDKEHRCIVRHENNKNGVDQEIIFPPIKTDVITMDPKDNCSKDANDTLLLQLTNTSAYYMYLLLLLKSVVYFAIITCCLLRRTAFCCNGEKSRAKRSGSGATNFSLLKQAGDVEENPGPTSATMDWIWRILFLVGAATGAHSGPQVQLQESGGGLAQAGGSLRLSCAASGRTFSMGWFRQAPGKEREFVAAITYSGGSPYYASSVRGRFTISRDNAKNTVYLQMNSLKPEDTAVYYCAANPTYGSDWNAENWGQGTQVTVSSGSGGGGSGGGGSGGGGSFEAIELVPEHQTVPVSIGVPATLRCSMKGEAIGNYYINWYRKTQGNTMTFIYREKDIYGPGFKDNFQGDIDIAKNLAVLKILAPSERDEGSYYCACDTLGMGGEYTDKLIFGKGTRVTVEPRSQPHTKPSVFVMKNGTNVACLVKEFYPKDIRINLVSSKKITEFDPAIVISPSGKYNAVKLGKYEDSNSVTCSVQHDNKTVHSTDFEVKTDSTDHVKPKETENTKQPSKSCHKPKAIVHTEKVNMMSLTVLGLRMLFAKTVAVNFLLTAKLFFLRAKRSGSGVKQTLNFDLLKLAGDVESNPGPSRAHMTEYKPTVRLATRDDVPRAVRTLAAAFADYPATRHTVDPDRHIERVTELQELFLTRVGLDIGKVWVADDGAAVAVWTTPESVEAGAVFAEIGPRMAELSGSRLAAQQQMEGLLAPHRPKEPAWFLATVGVSPDHQGKGLGSAVVLPGVEAAERAGVPAFLETSAPRNLPFYERLGFTVTADVEVPEGPRTWCMTRKPGA
B3: 22168 (protein)
chain: MALPVTALLLPLALLLHAARPEVQLVESGGGLVQPGGSLRLSCEASGFASDDYIIGWFRQAPGKEREGVSCISSKYANTVYTDSVKGRFRLSRGTAKNTVYLQMSALKPEDTAVYYCAMDSRRVTCPEISTMHRNFDSWGQGTLVTVSSGTGGGGSGGGGSGGGGSEFDIQMTQSPSSLSASVGDRVTITCKASDHINNWLAWYQQKPGQAPKLLIYGATTLETGVPSRFSGSGSGTDYTLTISSLQPEDFATYYCQQSWNTPWTFGQGTKLEIKRLEIQNPDPAVYQLRDSKSSDKSVCLFTDFDSQTNVSQSKDSDVYITDKCVLDMRSMDFKSNSAVAWSNKSDFACANAFNNSIIPEDTFFPSSDVPCDVKLVEKSFETDTNLNFQNLSVIGFRILLLKVAGFNLLMTLRLWSSRAKRSGSGVKQTLNFDLLKLAGDVESNPGPTSATMDWIWRILFLVGAATGAHSGPQVQLQESGGGLAQAGGSLRLSCAASGRTFSMGWFRQAPGKEREFVAAITYSGGSPYYASSVRGRFTISRDNAKNTVYLQMNSLKPEDTAVYYCAANPTYGSDWNAENWGQGTQVTVSSGSGGGGSGGGGSGGGGSFEQVQLQQPGAELVKPGASVKMSCKASGYAFSSYWINWMKQKPGQGLEWIGQIYPGDGDTNYNGKFKGRATLTADTSSSTAYMQLSSLTSEDSAVYFCARSITTVVGCAMDYWGQGTSVTVSSTREDLKNVFPPEVAVFEPSKAEIAHTQKATLVCLATGFYPDHVELSWWVNGKEVHSGVCTDPQPLKEQPALNDSRYCLSSRLRVSATFWQNPRNHFRCQVQFYGLSENDEWTQDRAKPVTQIVSAEAWGRADCGITSASYHQGVLSATILYEILLGKATLYAVLVSALVLMAMVKRKDSRGRAKRSGSGATNFSLLKQAGDVEENPGPSRGHMTEYKPTVRLATRDDVPRAVRTLAAAFADYPATRHTVDPDRHIERVTELQELFLTRVGLDIGKVWVADDGAAVAVWTTPESVEAGAVFAEIGPRMAELSGSRLAAQQQMEGLLAPHRPKEPAWFLATVGVSPDHQGKGLGSAVVLPGVEAAERAGVPAFLETSAPRNLPFYERLGFTVTADVEVPEGPRTWCMTRKPGA

Assays:
Format in all cases: cell-based
RAJI cells = assay: JNG assay, co-culture with RAJI cells; settings: for NFAT-GFP ASSAY: Raji: JNG cells expressing construct, co-culture with Raji
Outline: (§1)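 Jurkat NFAT-GFP (JNG) cells stably transduced with SARs by lentivirus, with drug selection where the construct carried a resistance gene, then co-cultured with target cells at E:T ~1:2 for ~4–18 h. % GFP-positive cells measured by FACS against parental JNG; +/- to 5+ correspond to ~5–50% GFP-positive.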

RAJI-CD19-KO cells = assay: JNG assay, co-culture with RAJI-CD19-KO cells; settings: for NFAT-GFP ASSAY: Raji-CD19-KO: co-culture with Raji-CD19-KO
Method: Cellular supernatant is collected and assayed for the induction of cytokines (e.g., IL2).
JNG (Jurkat cells expressing EGFP under an NFAT promoter) were infected with lentiviral vectors encoding different single chain and multi-chain SARs by spinfection in the presence of 8 µg/ml of Polybrene® (Sigma, Catalog no. H9268). The Jurkat-NFAT-GFP cells are engineered in such a way that the IL-2 promoter, which carries NFAT binding sites, is cloned upstream of the GFP gene. These cells have been used to study signaling via TCR and CAR. The different SARs were stably expressed in Jurkat NFAT-GFP cells by lentiviral mediated gene transfer, followed by selection with puromycin or blasticidin. No drug selection was used in case the construct lacked an antibiotic resistance gene. The SAR-expressing Jurkat-NFAT-GFP cells were cocultured with the target cells at E:T ratio of approximately 1:2 for approximately 4 hours to 18 hours. When the interaction between SIRs and their target antigen results in activation of the NFAT pathway, GFP expression is induced. […] GFP expression was monitored by FACS analysis. The Jurkat-NFAT-GFP (parental) cells were used as control. The structure of different constructs can be determined based on their names. […] The sequence of the other constructs in the table can be similarly determined from their names and by referring to the different Tables of this disclosure that provide the names and SEQ ID NO of the different modules. Alternatively, the composition and modular architecture of the different SAR constructs can be determined from their sequences by bioinformatics tools, including using nucleic acid and amino acids homology searches. A SAR is considered positive in the assay in case the SAR expressing Jurkat-NFAT-GFP cells show greater % GFP positive cells when cultured with the target cell line as compared to parental Jurkat-NFAT-GFP cells. […] In general, the number +/-, +, 2+, 3+, 4+, 5+ refer to approximately 5%, 10%, 20%, 30%, 40% and 50% GFP positive cells. The % of GFP induction in the above assay is dependent not only the relative strength of the SAR but also, among other factors, on the relative level of expression of the SAR in the JNG cells and the relative level of expression of the target antigen in the target cell line. To control for the difference in gene transduction efficiency of the different SAR constructs, the experiment was conducted with JNG cells transduced with SAR constructs co-expressing a drug resistance gene (e.g., puromycin or PAC) followed by drug selection to generate a stable population of SAR-expressing cells. It is to be noted that the drug resistance gene (e.g., PAC) in the SAR constructs is optional and in vivo studies were conducted with SAR constructs lacking the PAC gene.

L363 cells = assay: JNG assay, co-culture with L363 cells; settings: co-culture with L363 cells
Outline: as §1

Row | Molecule | NFAT-GFP ASSAY: Raji (RAJI cells) | NFAT-GFP ASSAY: Raji-CD19-KO (RAJI-CD19-KO cells) | GFP induction / activity (RAJI cells; co-culture with RAJI cells) | GFP induction / activity (RAJI-CD19-KO cells; co-culture with RAJI-CD19-KO cells) | GFP induction / activity (L363 cells)
1 | B1 | Raji (3+), Raji-CD19-KO (3+) (refer to approximately 5%, 10%, 20%, 30%, 40% and 50% GFP positive cells) | Raji (3+), Raji-CD19-KO (3+) (refer to approximately 5%, 10%, 20%, 30%, 40% and 50% GFP positive cells) | – | – | –
2 | B2 | – | – | robust induction of GFP | robust induction of GFP | robust induction of GFP
3 | B3 | 3+ (refer to approximately 5%, 10%, 20%, 30%, 40% and 50% GFP positive cells) | 2+ (refer to approximately 5%, 10%, 20%, 30%, 40% and 50% GFP positive cells) | – | – | –
